Laboratory results: paper PMC10572602, “Molecular Mechanism of STIL Coiled-Coil Domain Oligomerization” (International Journal of Molecular Sciences, 2023)
Numbering of substitutions follows the chain as printed. Names and notes keep the numbering of the source. No end group written: not given here.

Columns and labels:
[1] = target: PLK4 884-970 (Homo sapiens) (UniProt O00444); assay: ITC; details: cited from earlier work
[2] = target: STIL CCD_(718–749) L736E; assay: crystal structure; L736E crystallized at 0.9 mM peptide, 50 mM Tris pH 8.0, 10% v/v MPD, 4 °C; 1.67 Å
[3] = target: T1, WT STIL CCD peptide labelled with 7-(Diethylamino)coumarin-3-carboxylic acid (7-(Diethylamino)coumarin-3-carboxylic acid on the N-terminus; C-terminal amide); assay: other fluorescence titration; fluorescence read on a Monolith NT.115 (micro-scale thermophoresis instrument); 5 µM coumarin-labelled peptide with unlabelled peptide 9 nM to 300 µM; 25 mM sodium phosphate pH 6.8, ionic strength 154 mM (NaCl), 5% DMSO, room temperature (24 °C); Hill fit; apparent; taken by the paper as dimer to monomers; details: both partners purified
T1 construct: STIL coiled-coil domain, residues 718-749; also called labeled-WT CCD; fluorophore-labelled peptide; source: synthetic peptide (Fmoc-SPPS, fluorophore coupled on the resin, RP-HPLC purified)
T1 peptide: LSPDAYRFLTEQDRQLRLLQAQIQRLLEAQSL

[4] = target: the molecule itself; assay: AUC; sedimentation equilibrium, starting concentrations 5, 10 and 20 µM, unlabelled peptide, no DMSO; 20 °C, sodium phosphate pH 6.8 with NaCl; fitted to a single ideal species (N) and, for the WT, to a dimer-tetramer model (apparent KD: tetramer to dimers)
[5] = target: the molecule itself; assay: as above; remark: listed apart in the source
[6] = target: the molecule itself; assay: AUC; sedimentation velocity, 12.5 µM peptide, c(s) distribution; 20 °C, 25 mM sodium phosphate pH 6.8, ionic strength 154 mM (NaCl)
[7] = target: T2, STIL CCD peptide with a different fluorophore (fluorescence polarization) (a fluorophore other than the coumarin, not named, position not stated; C-terminal amide); assay: fluorescence polarisation; same STIL CCD peptide with a different fluorophore; Hill fit; dimer to monomers; details: both partners purified
T2 construct: STIL coiled-coil domain, residues 718-749; also called same STIL CCD peptide and different fluorophore; source: synthetic peptide
T2 peptide: T1 peptide

[8] = target: the molecule itself; assay: AUC; sedimentation velocity, 75 µM peptide, c(s) distribution; 20 °C, 25 mM sodium phosphate pH 6.8, ionic strength 154 mM (NaCl)
[9] = target: the molecule itself; assay: AUC; sedimentation velocity, 10 µM peptide, c(s) distribution; 20 °C, 25 mM sodium phosphate pH 6.8, ionic strength 154 mM (NaCl)
[10] = target: the molecule itself; assay: AUC; sedimentation velocity, 500 µM peptide, c(s) distribution; 20 °C, 25 mM sodium phosphate pH 6.8, ionic strength 154 mM (NaCl)
[11] = tested on: Stil−/− mouse embryonic fibroblasts; details: full-length STIL expressed in Stil−/− mouse embryonic fibroblasts; ref [14]; cited from earlier work
Description: Presumably, this is due to the disruption of the hydrophobic CC interactions upon mutation from the hydrophobic Leu to the charged Glu. […] Other ...

Sequence of PLK4 884-970 (Homo sapiens) (O00444 884-970): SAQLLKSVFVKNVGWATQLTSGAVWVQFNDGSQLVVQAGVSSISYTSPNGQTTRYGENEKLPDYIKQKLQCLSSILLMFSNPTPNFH

## STIL CCD (from UniProt Q15468)
[1]
  Kd: 0.28 µM

## STIL CCD_(718–749) L736E (peptide)
[2]
  stoichiometry N: 2

B1: STIL CCD_(718–749) WT (peptide)
peptide: LSPDAYRFLTEQDRQLRLLQAQIQRLLEAQSL-NH2
notes: STIL (SCL/TAL1 Interrupting Locus) coiled-coil domain, residues 718-749; 32-residue peptide, unlabelled; also called WT STIL CCD peptide; WT CCD; source: synthetic peptide (Fmoc-SPPS on rink amide, RP-HPLC purified)
[3]
  Kd: 8 ± 2 µM
[4]
  Kd: 68 ± 2 µM
[5]
  stoichiometry N: 2.9 ± 0.04
[6]
  stoichiometry N: 2 × monomer mass
[7]
  Kd: 8.5 ± 0.4 µM
[8]
  stoichiometry N: 3.27 × monomer mass
[9]
  stoichiometry N: 1.7
[10]
  stoichiometry N: 3.4 × monomer mass

B2: full-length L736E mutant: full-length STIL protein with L736E mutation (protein, UniProt Q15468 1-1287, looked up, variant L736E)
chain: MEPIYPFARPQMNTRFPSSRMVPFHFPPSKCALWNPTPTGDFIYLHLSYYRNPKLVVTEKTIRLAYRHAKQNKKNSSCFLLGSLTADEDEEGVTLTVDRFDPGREVPECLEITPTASLPGDFLIPCKVHTQELCSREMIVHSVDDFSSALKALQCHICSKDSLDCGKLLSLRVHITSRESLDSVEFDLHWAAVTLANNFKCTPVKPIPIIPTALARNLSSNLNISQVQGTYKYGYLTMDETRKLLLLLESDPKVYSLPLVGIWLSGITHIYSPQVWACCLRYIFNSSVQERVFSESGNFIIVLYSMTHKEPEFYECFPCDGKIPDFRFQLLTSKETLHLFKNVEPPDKNPIRCELSAESQNAETEFFSKASKNFSIKRSSQKLSSGKMPIHDHDSGVEDEDFSPRPIPSPHPVSQKISKIQPSVPELSLVLDGNFIESNPLPTPLEMVNNENPPLINHLEHLKPLQPQLYDEKHSPEVEAGEPSLRGIPNQLNQDKPALLRHCKVRQPPAYKKGNPHTRNSIKPSSHNGPSHDIFEKLQTVSAGNVQNEEYPIRPSTLNSRQSSLAPQSQPHDFVFSPHNSGRPMELQIPTPPLPSYCSTNVCRCCQHHSHIQYSPLNSWQGANTVGSIQDVQSEALQKHSLFHPSGCPALYCNAFCSSSSPIALRPQGDMGSCSPHSNIEPSPVARPPSHMDLCNPQPCTVCMHTPKTESDNGMMGLSPDAYRFLTEQDRQLRLEQAQIQRLLEAQSLMPCSPKTTAVEDTVQAGRQMELVSVEAQSSPGLHMRKGVSIAVSTGASLFWNAAGEDQEPDSQMKQDDTKISSEDMNFSVDINNEVTSLPGSASSLKAVDIPSFEESNIAVEEEFNQPLSVSNSSLVVRKEPDVPVFFPSGQLAESVSMCLQTGPTGGASNNSETSEEPKIEHVMQPLLHQPSDNQKIYQDLLGQVNHLLNSSSKETEQPSTKAVIISHECTRTQNVYHTKKKTHHSRLVDKDCVLNATLKQLRSLGVKIDSPTKVKKNAHNVDHASVLACISPEAVISGLNCMSFANVGMSGLSPNGVDLSMEANAIALKYLNENQLSQLSVTRSNQNNCDPFSLLHINTDRSTVGLSLISPNNMSFATKKYMKRYGLLQSSDNSEDEEEPPDNADSKSEYLLNQNLRSIPEQLGGQKEPSKNDHEIINCSNCESVGTNADTPVLRNITNEVLQTKAKQQLTEKPAFLVKNLKPSPAVNLRTGKAEFTQHPEKENEGDITIFPESLQPSETLKQMNSMNSVGTFLDVKRLRQLPKLF
modifications: full-length
notes: full-length STIL protein with L736E mutation
[11]
  formation of centrosomes and cilia (in words): completely disrupts the formation of centrosomes and cilia

B3: WT STIL: full-length wild-type STIL protein (protein, UniProt Q15468 1-1287, looked up)
chain: B2 chain with E736L
modifications: full-length
notes: full-length wild-type STIL protein
[11]
  formation of centrosomes and cilia (in words): rescues this phenotype
